In patent US20040248232:

Columns and labels:
[1] = test system: Z★Val-Lys-Met-MCA substrate
[2] = test system: APP substrate Ser-Glu-Val-Lys-Met-Asp-Ala-Glu-Phe

Sequence of Peak I β-secretase endoprotease activity from bovine chromaffin vesicles, identified as bovine cathepsin L (27 kDa cysteine protease band) (chain, as listed by the source): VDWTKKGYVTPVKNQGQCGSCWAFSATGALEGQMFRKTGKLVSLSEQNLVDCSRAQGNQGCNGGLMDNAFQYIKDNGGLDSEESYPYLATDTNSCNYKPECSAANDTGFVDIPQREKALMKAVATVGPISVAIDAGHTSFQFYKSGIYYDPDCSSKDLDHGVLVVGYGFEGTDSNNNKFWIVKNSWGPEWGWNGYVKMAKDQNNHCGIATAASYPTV

| Substance | fluorescent MCA released by cleavage of the substrate [1] | cleavage of the APP substrate, products analyzed by EMS [2] | cleavage of the Z★Val-Lys-Met-MCA substrate, products analyzed by EMS [1] |
| --- | --- | --- | --- |
| Peak II-A β-secretase endoprotease activity from bovine chromaffin vesicles, identified as bovine cathepsin B (31 kDa cysteine protease band) | the majority of the endoprotease activity in Peak II-A and Peak II-B cleaved the β-secretase scissile bond | the majority of the Peaks II-A and II-B activities cleaved the Met-Asp bond | – |
| Peak I β-secretase endoprotease activity from bovine chromaffin vesicles, identified as bovine cathepsin L (27 kDa cysteine protease band) | – | the majority of Peak I activity cleaved the Lys-Met bond | the Peak I activity cleaved the Lys-Met bond in the Z★Val-Lys-Met-MCA substrate |
| Peak II-B β-secretase endoprotease activity from bovine chromaffin vesicles, identified as bovine cathepsin B (31 kDa cysteine protease band) | the majority of the endoprotease activity in Peak II-A and Peak II-B cleaved the β-secretase scissile bond | the majority of the Peaks II-A and II-B activities cleaved the Met-Asp bond | – |
